Test results taken from patent US20240301076A1 (CEPHALON, published 2024).
Substitutions are numbered along the chain they refer to. Names may count otherwise.

B1: BKO-4A8 variant VH R53Q (antibody, human IgG4 S228P, lambda, V domains shown)
VH: EVQLLESGGGLVQPGGSLRLSCAASGFTFSSSTMSWVRQAPGKGLEWVSAISGQGRNTYYADSVKGRFTISRDNSRNTLYLQMNSLRAEDTAVYYCAIQMGYWGQGILVTVSS
VL: QSALTQPPSASGSPGQSVTISCIGTSSDVGGYNYVSWYQQHPDKAPKLMIYEVNKRPSGVPDRFSGSKSGNTASLTVSGLQAEDEADYYCSSYAGNNNFGVFGGGTKLTVLG
notes: IgG4 S228P, lambda; parental light chain; also called 4A8 VH R53Q
B2: BKO-4A8 variant VH S32Y (antibody, human IgG4 S228P, lambda, V domains shown)
VH: B1 VH with S32Y, Q54R
VL: B1 VL
notes: IgG4 S228P, lambda; parental light chain; also called 4A8 VH S32Y
B3: BKO-4A8 variant VH Y102S (antibody, human IgG4 S228P, lambda, V domains shown)
VH: B1 VH with Q54R, Y102S
VL: B1 VL
notes: IgG4 S228P, lambda; parental light chain; also called 4A8 VH Y102S
B4: BKO-4A8 variant VL R54Q (antibody, human IgG4 S228P, lambda, V domains shown)
VH: B1 VH with Q54R
VL: B1 VL with R56Q
notes: IgG4 S228P, lambda; parental heavy chain; also called 4A8 VL R54Q
B5: BKO-4A8 variant VH I51H (antibody, human IgG4 S228P, lambda, V domains shown)
VH: B1 VH with I51H, Q54R
VL: B1 VL
notes: IgG4 S228P, lambda; parental light chain; also called 4A8 VH I51H
B6: BKO-4A8 variant VL Y91A (antibody, human IgG4 S228P, lambda, V domains shown)
VH: B1 VH with Q54R
VL: B1 VL with Y93A
notes: IgG4 S228P, lambda; parental heavy chain; also called 4A8 VL Y91A
B7: BKO-4A8 variant VH G54D (antibody, human IgG4 S228P, lambda, V domains shown)
VH: B1 VH with Q54R, G55D
VL: B1 VL
notes: IgG4 S228P, lambda; parental light chain; also called 4A8 VH G54D
B8: BKO-4A8 variant VH S32H (antibody, human IgG4 S228P, lambda, V domains shown)
VH: B1 VH with S32H, Q54R
VL: B1 VL
notes: IgG4 S228P, lambda; parental light chain; also called 4A8 VH S32H
B9: BKO-4A8 variant VH S32W (antibody, human IgG4 S228P, lambda, V domains shown)
VH: B1 VH with S32W, Q54R
VL: B1 VL
notes: IgG4 S228P, lambda; parental light chain; also called 4A8 VH S32W
B10: BKO-4A8 variant VH T33A (antibody, human IgG4 S228P, lambda, V domains shown)
VH: B1 VH with T33A, Q54R
VL: B1 VL
notes: IgG4 S228P, lambda; parental light chain; also called 4A8 VH T33A
B11: BKO-4A8 variant VL N94L (antibody, human IgG4 S228P, lambda, V domains shown)
VH: B1 VH with Q54R
VL: B1 VL with N96L
notes: IgG4 S228P, lambda; parental heavy chain; also called 4A8 VL N94L
B12: BKO-4A8 variant VL K53H (antibody, human IgG4 S228P, lambda, V domains shown)
VH: B1 VH with Q54R
VL: B1 VL with K55H
notes: IgG4 S228P, lambda; parental heavy chain; also called 4A8 VL K53H
B13: BKO-4A8 variant VL K53D (antibody, human IgG4 S228P, lambda, V domains shown)
VH: B1 VH with Q54R
VL: B1 VL with K55D
notes: IgG4 S228P, lambda; parental heavy chain; also called 4A8 VL K53D
B14: BKO-4A8 variant VH G52aD (antibody, human IgG4 S228P, lambda, V domains shown)
VH: B1 VH with G53D, Q54R
VL: B1 VL
notes: IgG4 S228P, lambda; parental light chain; also called 4A8 VH G52aD
B15: BKO-4A8 variant VL E50D (antibody, human IgG4 S228P, lambda, V domains shown)
VH: B1 VH with Q54R
VL: B1 VL with E52D
notes: IgG4 S228P, lambda; parental heavy chain; also called 4A8 VL E50D
B16: BKO-4A8 variant VL N95aD (antibody, human IgG4 S228P, lambda, V domains shown)
VH: B1 VH with Q54R
VL: B1 VL with N98D
notes: IgG4 S228P, lambda; parental heavy chain; also called 4A8 VL N95aD
B17: BKO-4A8 variant VH S32L (antibody, human IgG4 S228P, lambda, V domains shown)
VH: B1 VH with S32L, Q54R
VL: B1 VL
notes: IgG4 S228P, lambda; parental light chain; also called 4A8 VH S32L
B18: BKO-4A8 variant VL V97A (antibody, human IgG4 S228P, lambda, V domains shown)
VH: B1 VH with Q54R
VL: B1 VL with V101A
notes: IgG4 S228P, lambda; parental heavy chain; also called 4A8 VL V97A
B19: BKO-4A8 variant VH M34W (antibody, human IgG4 S228P, lambda, V domains shown)
VH: B1 VH with M34W, Q54R
VL: B1 VL
notes: IgG4 S228P, lambda; parental light chain; also called 4A8 VH M34W
B20: BKO-4A8 variant VL N52D (antibody, human IgG4 S228P, lambda, V domains shown)
VH: B1 VH with Q54R
VL: B1 VL with N54D
notes: IgG4 S228P, lambda; parental heavy chain; also called 4A8 VL N52D
B21: BKO-4A8 variant VH G101D (antibody, human IgG4 S228P, lambda, V domains shown)
VH: B1 VH with Q54R, G101D
VL: B1 VL
notes: IgG4 S228P, lambda; parental light chain; also called 4A8 VH G101D
B22: BKO-4A8 variant VH Y102K (antibody, human IgG4 S228P, lambda, V domains shown)
VH: B1 VH with Q54R, Y102K
VL: B1 VL
notes: IgG4 S228P, lambda; parental light chain; also called 4A8 VH Y102K
B23: BKO-4A8 variant VL K53A (antibody, human IgG4 S228P, lambda, V domains shown)
VH: B1 VH with Q54R
VL: B1 VL with K55A
notes: IgG4 S228P, lambda; parental heavy chain; also called 4A8 VL K53A
B24: BKO-4A8 variant VL N94W (antibody, human IgG4 S228P, lambda, V domains shown)
VH: B1 VH with Q54R
VL: B1 VL with N96W
notes: IgG4 S228P, lambda; parental heavy chain; also called 4A8 VL N94W
B25: BKO-4A8 variant VL V97K (antibody, human IgG4 S228P, lambda, V domains shown)
VH: B1 VH with Q54R
VL: B1 VL with V101K
notes: IgG4 S228P, lambda; parental heavy chain; also called 4A8 VL V97K
B26: BKO-4A8 variant VH R53S (antibody, human IgG4 S228P, lambda, V domains shown)
VH: B1 VH with Q54S
VL: B1 VL
notes: IgG4 S228P, lambda; parental light chain; also called 4A8 VH R53S
B27: BKO-4A8 variant VL N95aH (antibody, human IgG4 S228P, lambda, V domains shown)
VH: B1 VH with Q54R
VL: B1 VL with N98H
notes: IgG4 S228P, lambda; parental heavy chain; also called 4A8 VL N95aH
B28: BKO-4A8 variant VH S32Q (antibody, human IgG4 S228P, lambda, V domains shown)
VH: B1 VH with S32Q, Q54R
VL: B1 VL
notes: IgG4 S228P, lambda; parental light chain; also called 4A8 VH S32Q
B29: BKO-4A8 variant VL N94A (antibody, human IgG4 S228P, lambda, V domains shown)
VH: B1 VH with Q54R
VL: B1 VL with N96A
notes: IgG4 S228P, lambda; parental heavy chain; also called 4A8 VL N94A
B30: BKO-4A8 variant VH M34D (antibody, human IgG4 S228P, lambda, V domains shown)
VH: B1 VH with M34D, Q54R
VL: B1 VL
notes: IgG4 S228P, lambda; parental light chain; also called 4A8 VH M34D
B31: BKO-4A8 variant VL N95aK (antibody, human IgG4 S228P, lambda, V domains shown)
VH: B1 VH with Q54R
VL: B1 VL with N98K
notes: IgG4 S228P, lambda; parental heavy chain; also called 4A8 VL N95aK
B32: BKO-4A8 variant VL N95aL (antibody, human IgG4 S228P, lambda, V domains shown)
VH: B1 VH with Q54R
VL: B1 VL with N98L
notes: IgG4 S228P, lambda; parental heavy chain; also called 4A8 VL N95aL
B33: BKO-4A8 variant VL N95aY (antibody, human IgG4 S228P, lambda, V domains shown)
VH: B1 VH with Q54R
VL: B1 VL with N98Y
notes: IgG4 S228P, lambda; parental heavy chain; also called 4A8 VL N95aY
B34: BKO-4A8 combinatorial variant 1b (antibody, human IgG4 S228P, lambda, V domains shown)
VH: B1 VH with M34Q, Q54R, N57S
VL: B1 VL with N54S, N96S
notes: IgG4 S228P, lambda
B35: BKO-4A8 combinatorial variant 2b (antibody, human IgG4 S228P, lambda, V domains shown)
VH: B1 VH with M34Q, A40P, Q54R, N57S
VL: B1 VL with N54S, N96S
notes: IgG4 S228P, lambda
B36: BKO-4A8 combinatorial variant 1c (antibody, human IgG4 S228P, lambda, V domains shown)
VH: B1 VH with M34Q, Q54R, N57S
VL: B1 VL with D43G, N54S, N96S
notes: IgG4 S228P, lambda

Molecular target: T1, human CXCR2 (human, UniProt P25025 1-360)
T1 construct: also called CXC chemokine receptor 2; hCXCR2
T1 sequence: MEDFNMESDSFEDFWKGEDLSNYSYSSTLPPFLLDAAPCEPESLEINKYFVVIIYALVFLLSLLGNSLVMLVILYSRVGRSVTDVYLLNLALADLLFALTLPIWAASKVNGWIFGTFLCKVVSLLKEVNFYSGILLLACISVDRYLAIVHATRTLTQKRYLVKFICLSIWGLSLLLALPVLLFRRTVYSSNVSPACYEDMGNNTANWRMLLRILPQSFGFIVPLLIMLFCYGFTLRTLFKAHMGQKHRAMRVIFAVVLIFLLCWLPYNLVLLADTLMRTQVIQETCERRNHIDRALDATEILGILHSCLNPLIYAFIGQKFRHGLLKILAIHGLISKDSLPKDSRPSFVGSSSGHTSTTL
Assay: flow cytometry, CXCR2-transfected Expi293F cells
Protocol: (§1) Harvested cells were resuspended in FACS buffer (1×PBS+0.5% (w/v) bovine serum albumin (BSA)+2 mM EDTA pH 7.2). Approximately 2×10⁵ cells were added per well in a 96-well round-bottomed plate. Cells were pelleted by centrifugation at 400 g for 5 mins at 4° C. and supernatants discarded. 25 μL of each test antibody or control antibody was added to the cells and incubated for 30 minutes at 4° C. Cells were washed twice in 100 μL FACS buffer followed by centrifugation at 400 g for 5 mins at 4° C.
(§2) For detection, 50 μL of secondary antibody (Table 2) was added to relevant samples. Commercially available antibodies that bound to transfected CXCR family members were used as positive controls to ensure that the cells were expressing the receptors. Cells were washed twice in 200 μL of FACS buffer followed by centrifugation at 400 g for 5 mins at 4° C. Before sample acquisition, cells were resuspended in 100 μL of FACS buffer. Samples were acquired using the high throughput sampler on a FACSCanto™ II cytometer (Beckton-Dickinson).
Each variant heavy chain was co-expressed with the parental light chain and vice versa.

Binder | Fold change in binding relative to BKO-4A8 [fold]
B1 | 0.64
B2 | 1.33
B3 | 1.5
B4 | 1.6
B5 | 1.8
B6 | 1.7
B7 | 1
B8 | 0.86
B9 | 0.83
B10 | 1.3
B11 | 0.88
B12 | 1.4
B13 | 1.4
B14 | 1.18
B15 | 2
B16 | 2.3
B17 | 1.33

Binder | Fold change in binding relative to BKO-4A8 [fold]
B18 | 1.7
B19 | 1.17
B20 | 1.7
B21 | 1
B22 | 1.3
B23 | 1.4
B24 | 0.63
B25 | 1
B26 | 1
B27 | 1.3
B28 | 1.71
B29 | 1
B30 | 1.6
B31 | 1
B32 | 1.7
B33 | 1.7

Molecular target: T1, human CXCR2
Assay: flow cytometry, CXCR2-transfected Expi293F cells
Remark: another data set of the same source
Protocol: as §1, §2
Each heavy chain was co-expressed with each light chain to produce a sequence optimized antibody variant. Antibodies were purified and tested for CXCR2 binding activity as described in General Methods.

Binder | EC50 [nM] | Fold Improvement over 4A8 WT [fold]
B34 | 0.3 | 1.33
B35 | 0.4 | 1.25
B36 | 0.3 | 1.33
